From patent US20260167706A1 (ADRENOMED, published 2026)
Read-outs that look alike come from different tables or passages of the source. Where no end group is shown, it is not given here.

Tests used:
[1] = molecular target: T1, human recombinant adrenomedullin receptor (CRLR + RAMP3) (human); assay: cell-based or functional assay
[2] = molecular target: T1, human recombinant adrenomedullin …; assay: cell-based or functional assay; remark: listed apart in the source

T1 sequence (Q16602 whole entry, chain 1 of 2): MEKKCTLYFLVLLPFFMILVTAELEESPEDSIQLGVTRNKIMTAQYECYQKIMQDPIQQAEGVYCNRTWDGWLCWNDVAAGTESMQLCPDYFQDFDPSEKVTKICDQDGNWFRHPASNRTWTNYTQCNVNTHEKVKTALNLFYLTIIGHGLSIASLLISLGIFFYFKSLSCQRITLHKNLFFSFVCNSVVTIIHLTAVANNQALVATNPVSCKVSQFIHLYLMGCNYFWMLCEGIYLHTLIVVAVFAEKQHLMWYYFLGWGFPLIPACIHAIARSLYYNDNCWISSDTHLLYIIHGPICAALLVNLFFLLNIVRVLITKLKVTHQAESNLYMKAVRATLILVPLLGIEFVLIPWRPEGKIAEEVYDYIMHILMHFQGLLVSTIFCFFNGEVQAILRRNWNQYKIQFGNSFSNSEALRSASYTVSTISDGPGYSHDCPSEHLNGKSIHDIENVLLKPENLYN
T1 sequence (O60896 whole entry, chain 2 of 2, further chain): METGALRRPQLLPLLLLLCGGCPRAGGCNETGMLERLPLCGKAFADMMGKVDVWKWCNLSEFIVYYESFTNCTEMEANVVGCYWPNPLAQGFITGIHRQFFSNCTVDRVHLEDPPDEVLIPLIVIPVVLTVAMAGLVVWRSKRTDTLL

B1: Murine ADM 1-50 (peptide)
peptide: YRQSMNQGSRSNGCRFGTCTFQKLAHQIYQLTDKDKDGMAPRNKISPQGY-NH2
modifications: ends and bridges not checked
EC50 (read off the curve); cAMP, % activation [1]: ~80 pM

B2: human Adrenomedullin (mature ADM; amidated ADM; bio-ADM), amino acids 1-52 (peptide)
peptide: YRQSMNNFQGLRSFGCRFGTCTVQKLAHQIYQFTDKDKDNVAPRSKISPQGY-NH2
modifications: ends and bridges not checked
EC50 (read off the curve); cAMP, % activation [2]: ~1000 pM
